System: ScbR2
Assay: EMSA
Conditions: 'nearly 1 uM'; exact value in figure; not stated; modified EMSA as previously described (ref 23)

PkasO1
Kd: 1000 nM

Source: paper PMC4625125
